*1 amine or outer side, *2 acyl side, *3 side chain or, on linkers, in order; H or OH if unused. Where no end group is shown, it is not given here. [ ]: non-standard residue; d: D form. αMe‑APPA = 2-amino-2-methyl-5-phenylpentanoic acid, C[C@@](CCCc1ccccc1)(N[*:1])C(=O)[*:2]; Bip(2'-Et-4'-OMe) = CCc1cc(OC)ccc1-c1ccc(C[C@H](N)C(=O)O)cc1; αMePhe(2,6-F2) = C[C@](N)(Cc1c(F)cccc1F)C(=O)O; αMePhe(2-F) = C[C@](N)(Cc1ccccc1F)C(=O)O; αMeW = C[C@](N)(Cc1c[nH]c2ccccc12)C(=O)O; αMeNle = CCCC[C@](C)(N[*:1])C(=O)[*:2]; αMe‑Bip(OMe) = α-methylated Bip(OMe); hhPhe = N[C@@H](CCCc1ccccc1)C(=O)O; hArg = N=C(N)NCCCC[C@H](N)C(=O)O; hCit = NC(=O)NCCCC[C@H](N)C(=O)O; αMeF = C[C@](N)(Cc1ccccc1)C(=O)O; Cit = NC(=O)NCCC[C@H](N)C(=O)O; αMeV = CC(C)[C@](C)(N)C(=O)O; αMeM = CSCC[C@](C)(N)C(=O)O; αMeP = C[C@@]1(C(=O)O)CCCN1; Nle = CCCC[C@H](N)C(=O)O; Ac5c = NC1(C(=O)O)CCCC1; Ac3c = NC1(C(=O)O)CC1; Aib = CC(C)(N)C(=O)O
T1: rat PTH-1R (rat PTHR endogenously expressed on UMR-106 rat osteosarcoma cells) (rat, UniProt P25961 27-591)
T1 sequence (looked up): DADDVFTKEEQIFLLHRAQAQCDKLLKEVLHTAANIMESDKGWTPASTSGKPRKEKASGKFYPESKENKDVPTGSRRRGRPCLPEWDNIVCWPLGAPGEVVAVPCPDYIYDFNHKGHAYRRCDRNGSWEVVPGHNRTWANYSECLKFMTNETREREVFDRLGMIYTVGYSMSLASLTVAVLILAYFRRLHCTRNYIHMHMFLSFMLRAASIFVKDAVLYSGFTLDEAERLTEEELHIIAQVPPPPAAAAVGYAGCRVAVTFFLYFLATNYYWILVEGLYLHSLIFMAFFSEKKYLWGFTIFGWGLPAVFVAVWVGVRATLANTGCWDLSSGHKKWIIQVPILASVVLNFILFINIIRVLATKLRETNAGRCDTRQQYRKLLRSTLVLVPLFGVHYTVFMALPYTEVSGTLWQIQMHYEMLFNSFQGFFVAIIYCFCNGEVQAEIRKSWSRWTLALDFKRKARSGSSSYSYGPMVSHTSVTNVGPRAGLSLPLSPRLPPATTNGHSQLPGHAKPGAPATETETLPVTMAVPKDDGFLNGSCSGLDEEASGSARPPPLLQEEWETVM

B1: Seq. ID. 950 (peptide)
peptide: V[Ac3c]V[Aib]EIQL[αMeM]HQ[hArg]A[hArg][αMeW][αMe‑APPA]
B2: Seq. ID. 935 (peptide)
peptide: V[Ac3c]V[Aib]EIQL[αMeNle]HQ[hArg]A[hArg][αMePhe(2-F)][αMe‑APPA]
B3: Seq. ID. 156 (peptide)
peptide: [Aib]V[Ac5c]EIQ[αMePhe(2,6-F2)][Nle]HQ[hArg][Aib][Cit][αMePhe(2,6-F2)]
B4: Seq. ID. 174 (peptide)
peptide: [Ac3c]V[Aib]EIQ[αMePhe(2,6-F2)][Nle]HQ[hArg][Aib][Aib][αMePhe(2-F)]
B5: Seq. ID. 41 (peptide)
peptide: [Ac3c]V[Aib]EIQ[αMePhe(2,6-F2)][Nle]HQ[hArg][Aib]K[αMeF]
B6: Seq. ID. 49 (peptide)
peptide: [Ac5c]V[Aib]EIQ[αMePhe(2,6-F2)][Nle]HQ[hArg]AK[αMeF]
B7: Seq. ID. 899 (peptide)
peptide: [Aib]V[Aib]EIQL[Nle]HQ[hArg]A[hArg][αMe‑Bip(OMe)][hhPhe]
B8: Seq. ID. 886 (peptide)
peptide: [Aib]V[Aib]EIQ[αMePhe(2,6-F2)][Nle]HQ[αMePhe(2,6-F2)][Aib][Aib][Bip(2'-Et-4'-OMe)][hhPhe]
B9: Seq. ID. 110 (peptide)
peptide: [Ac3c]V[Aib]EIQ[αMePhe(2,6-F2)][Nle]HQ[hArg][αMeP]K[αMePhe(2,6-F2)]
B10: Seq. ID. 9 (peptide)
peptide: [Aib]V[Aib]EIQLMHQ[hArg][Aib]K[αMeF]
B11: Seq. ID. 59 (peptide)
peptide: [Ac3c]V[Aib]EIQ[αMePhe(2-F)][Nle]HQ[hArg][αMeP]K[αMePhe(2-F)]
B12: Seq. ID. 905 (peptide)
peptide: V[Aib]V[Aib]EIQL[Nle]HQ[hArg]A[hArg][Bip(2'-Et-4'-OMe)][αMe‑APPA]
B13: Seq. ID. 925 (peptide)
peptide: V[Ac5c]V[Aib]EIQL[αMeNle]HQ[hArg]A[hArg][Bip(2'-Et-4'-OMe)][αMe‑APPA]
B14: Seq. ID. 872 (peptide)
peptide: [Aib]V[Aib]EIQ[αMePhe(2,6-F2)][Nle]HQ[hCit][Aib][αMePhe(2,6-F2)][Bip(2'-Et-4'-OMe)][hhPhe]
B15: Seq. ID. 942 (peptide)
peptide: [Aib]V[Aib]EIQL[αMeM]HQ[hArg]A[hArg][αMeW][hhPhe]
B16: Seq. ID. 926 (peptide)
peptide: [αMeV][Ac5c]V[Aib]EIQL[αMeM]HQ[hArg]A[hArg][Bip(2'-Et-4'-OMe)][αMe‑APPA]
B17: Seq. ID. 78 (peptide)
peptide: [Aib]V[Ac5c]EIQ[αMePhe(2,6-F2)][Nle]HQ[hArg][αMeP]K[αMePhe(2-F)]
B18: Seq. ID. 132 (peptide)
peptide: [Aib]V[Aib]EIQ[αMePhe(2,6-F2)][Nle]HQ[hArg][Aib][Cit][αMePhe(2-F)]
B19: Seq. ID. 91 (peptide)
peptide: [Aib]V[Aib]EIQ[αMePhe(2-F)][Nle]HQ[hArg][αMeP]K[αMePhe(2,6-F2)]
B20: Seq. ID. 954 (peptide)
peptide: [αMeV][Ac5c]V[Aib]EIQL[αMeM]HQ[hArg]A[hArg][αMeW][αMe‑APPA]
B21: Seq. ID. 65 (peptide)
peptide: [Ac5c]V[Ac5c]EIQ[αMePhe(2-F)][Nle]HQ[hArg][αMeP]K[αMePhe(2-F)]

Biological target: T1, rat PTH-1R (rat PTHR endogenously …)
Experiment: cell-based or functional assay

Row | Binder | cAMP released with respect to control, 1 nM peptide, UMR-106 cells | cAMP released with respect to control, 10 nM peptide, UMR-106 cells | cAMP released with respect to control, 100 nM peptide, UMR-106 cells
1 | B1 | 26 percent of control | 67 percent of control | 81 percent of control
2 | B2 | 38 percent of control | 102 percent of control | 117 percent of control
3 | B3 | 31 percent of control | 89 percent of control | 106 percent of control
4 | B4 | 31 percent of control | 72 percent of control | 100 percent of control
5 | B5 | 26 percent of control | 79 percent of control | 97 percent of control
6 | B6 | 16 percent of control | 56 percent of control | 73 percent of control
7 | B7 | 38 percent of control | 91 percent of control | 120 percent of control
8 | B8 | 31 percent of control | 72 percent of control | 100 percent of control
9 | B9 | 12 percent of control | 39 percent of control | 72 percent of control
10 | B10 | 16 percent of control | 41 percent of control | 52 percent of control
11 | B11 | 19 percent of control | 66 percent of control | 84 percent of control
12 | B12 | 39 percent of control | 104 percent of control | 120 percent of control
13 | B13 | 16 percent of control | 41 percent of control | 52 percent of control
14 | B14 | 19 percent of control | 42 percent of control | 59 percent of control
15 | B15 | 29 percent of control | 52 percent of control | 69 percent of control
16 | B16 | 18 percent of control | 51 percent of control | 72 percent of control
17 | B17 | 23 percent of control | 73 percent of control | 93 percent of control
18 | B18 | 29 percent of control | 82 percent of control | 101 percent of control
19 | B19 | 42 percent of control | 101 percent of control | 110 percent of control
20 | B20 | 36 percent of control | 88 percent of control | 116 percent of control
21 | B21 | 34 percent of control | 82 percent of control | 104 percent of control
